In paper PMC8062024:
Where two headings read alike, the source gives them in different places.

| Substance | enzymatic_activity (N-glycosylation at N79) | expression_or_secretion (N-glycosylation at N79) | enzymatic_activity (N-glycosylation at N424) | enzymatic_activity (N-glycosylation at N170) | expression_or_secretion (N-glycosylation at N170) | expression_or_secretion (N-glycosylation at N424) |
| --- | --- | --- | --- | --- | --- | --- |
| PmCOX (Penaeus monodon cyclooxygenase): N79Q | no change, secreted PGE2 8.65 nM vs 7.40 nM wild type (40 uM ARA) | no change | – | – | – | – |
| PmCOX (Penaeus monodon cyclooxygenase): N424Q | – | – | abolishes, secreted PGE2 2.79 nM vs 7.40 nM wild type (empty vector 2.68 nM) | – | – | – |
| PmCOX (Penaeus monodon cyclooxygenase): N79Q/N170Q/N424Q triple mutant | abolishes, secreted PGE2 2.23 nM vs 7.40 nM wild type (empty vector 2.68 nM) | decreases | abolishes, secreted PGE2 2.23 nM vs 7.40 nM wild type (empty vector 2.68 nM) | abolishes, secreted PGE2 2.23 nM vs 7.40 nM wild type (empty vector 2.68 nM) | decreases | decreases |
| PmCOX (Penaeus monodon cyclooxygenase): N170Q | – | – | – | abolishes, secreted PGE2 2.45 nM vs 7.40 nM wild type (empty vector 2.68 nM) | – | – |
